Data on 2 molecules can be found in paper PMC3708937, “Function of FlhB, a Membrane Protein Implicated in the Bacterial Flagellar Type III Secretion System” (PLoS ONE, 2013).

Test [1] concerns the target T1, Salmonella FliC (flagellin) (Salmonella enterica serovar Typhimurium, UniProt P06179 1-495).
T1 construct: FliC (flagellin), major component of the flagellar filament, Salmonella enterica serovar Typhimurium
The experiment in a line: SPR; Biacore T100; AquFlhBC or FliC amine-coupled to a CM5 chip; FliS or FliS A22T flowed at 30 µl/min for 12 min; 10 mM HEPES pH 7.4, 150 mM NaCl, 0.05% (v/v) Surfactant P20; 25°C; steady-state analysis, 1:1 binding model. The following applies: both partners purified. Background: SPR reads the build-up and loss of mass on a sensor chip optically.

Test [2] has as its target T2, Aquifex FlhBC (C-terminal cytoplasmic domain of Aquifex aeolicus FlhB) (Aquifex aeolicus, UniProt O67813 213-350).
T2 construct: FlhB of Aquifex aeolicus, cytoplasmic domain FlhBC; also called AquFlhBC; source: purified as described previously [14]
T2 sequence (looked up): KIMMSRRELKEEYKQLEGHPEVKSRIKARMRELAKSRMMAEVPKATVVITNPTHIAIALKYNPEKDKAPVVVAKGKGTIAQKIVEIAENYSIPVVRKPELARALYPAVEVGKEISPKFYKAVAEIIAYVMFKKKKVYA
The description is as above. The conditions noted are these: both partners purified.

T1 sequence (P06179 whole entry): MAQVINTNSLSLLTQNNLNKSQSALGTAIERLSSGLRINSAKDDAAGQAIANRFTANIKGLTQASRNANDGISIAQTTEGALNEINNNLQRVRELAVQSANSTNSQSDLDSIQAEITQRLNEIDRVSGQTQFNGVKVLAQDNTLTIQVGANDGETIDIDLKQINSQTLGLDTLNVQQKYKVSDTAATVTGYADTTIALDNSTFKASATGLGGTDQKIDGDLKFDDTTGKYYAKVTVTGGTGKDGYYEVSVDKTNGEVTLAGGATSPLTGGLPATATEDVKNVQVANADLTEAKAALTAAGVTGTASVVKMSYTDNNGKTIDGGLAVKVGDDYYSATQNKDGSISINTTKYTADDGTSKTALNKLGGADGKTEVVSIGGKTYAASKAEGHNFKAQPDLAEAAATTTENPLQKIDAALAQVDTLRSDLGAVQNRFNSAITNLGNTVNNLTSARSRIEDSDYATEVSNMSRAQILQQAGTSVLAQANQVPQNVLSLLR

B1: Salmonella FliS (wild type) (natural protein)
chain: MYTASGIKAYAQVSVESAVMSASPHQLIEMLFDGANSALVRARLFLEQGDVVAKGEALSKAINIIDNGLKAGLDQEKGGEIATNLSELYDYMIRRLLQANLRNDAQAIEEVEGLLSNIAEAWKQISPKASFQESR
notes: FliS, flagellin-specific chaperone of Salmonella enterica serovar Typhimurium; also called wild-type FliS
With B1, the Kd in test [1] is 0.7 µM; in test [2], 169 µM.

B2: Salmonella FliS A22T (natural protein)
chain: MYTASGIKAYAQVSVESAVMSTSPHQLIEMLFDGANSALVRARLFLEQGDVVAKGEALSKAINIIDNGLKAGLDQEKGGEIATNLSELYDYMIRRLLQANLRNDAQAIEEVEGLLSNIAEAWKQISPKASFQESR
notes: FliS of Salmonella enterica serovar Typhimurium with the point mutation A22T; The mutation arose as a spontaneous extragenic suppressor in the laboratory strain CB351; expression and purification of the protein are not described; also called FliS mutant A22T; fliS22264(A22T)
With B2, the figures for the Kd in test [1] and in test [2] were 11.9 µM and 304 µM, respectively.

What is called Kd is the equilibrium constant for the complex coming apart. A high value points to lower affinity.
